The nature of data set [1]: Osteopontin elution assay (ELISA). The format is physicochemical. To be noted: 1X PBS, 37° C. The method, then:
Osteopontin Elution Assay
To determine the amount of osteopontin released, coated Parylene™ coated discs were placed in 2 mL of 1×PBS for up to 30 days. The buffer was exchanged at approximately 30 minutes, 1 hour, 1 day, 5 days, 10 days, 15 days, and 30 days. Eluted samples were refrigerated until assaying. Osteopontin was quantified using an Osteopontin ELISA kit (R &D Systems, Mpls, MN) following the kit's instructions.
Sample discs coated with either osteopontin loaded PLGA coatings or empty PLGA coatings were placed in 1×PBS for elution over 30 days at 37° C., with the elution buffer exchanged at days 1, 5, 10, 15, and 30.
Total release per disc was 0.3 ng osteopontin released over 30 days (6-mg PLGA coating/3 ng osteopontin loading per disc).

Data set [2] is described as follows: Encrustation assay in artificial urine without bacteria. The settings on record: two separate experiments (Table 3). The procedure: Artificial urine solutions contained either:
The coatings were analyzed for encrustation.
In addition, both the Wet 1 and Dry POC coatings were analyzed for encrustation using the same procedure described previously.

This is an account of results in US10744233B2, “Crystallization inhibitor compositions for implantable urological devices” (Innovative Surface Technologies, Inc., priority 2016, dated 2020).

As for “osteopontin: human osteopontin (R&D Systems), sialoprotein; in b151 it is released from the osteopontin-loaded PLGA coating”, in data set [1] (30 days), the Osteopontin release period result is “released over the entire 30-day period”. Besides, the “Total osteopontin release per disc” value in data set [1] (over 30 days, 6-mg PLGA coating/3 ng osteopontin loading per disc) is given as 0.3 ng.
On to `O=C(O)CC(O)(CC(=O)O)C(=O)O` [citric acid], for which, in data set [2], the “Reduction of encrustation compared to control empty PLGA” value is given as 26-48% and the “Reduction of encrustation compared to uncoated” value is reported as “up to 66%”.
